Source: US20220089642A1

Biological target: SARS-CoV1

## Fc-ACE2 full length construct (Fc fusion)
  Kd: 1.84 nM
  koff: 0.000435 s⁻¹
  kon: 237000 M⁻¹ s⁻¹
